US20180094275A1 (AGRESEARCH, published 2018)

Experiments:
[1] = target: T1, Y2H PPD1-AD (PPD1 fused to GAL4 activation domain) (Arabidopsis thaliana); assay: yeast two-hybrid
T1 construct: Prey fusion; also called pDEST22-PPD1
T1 chain: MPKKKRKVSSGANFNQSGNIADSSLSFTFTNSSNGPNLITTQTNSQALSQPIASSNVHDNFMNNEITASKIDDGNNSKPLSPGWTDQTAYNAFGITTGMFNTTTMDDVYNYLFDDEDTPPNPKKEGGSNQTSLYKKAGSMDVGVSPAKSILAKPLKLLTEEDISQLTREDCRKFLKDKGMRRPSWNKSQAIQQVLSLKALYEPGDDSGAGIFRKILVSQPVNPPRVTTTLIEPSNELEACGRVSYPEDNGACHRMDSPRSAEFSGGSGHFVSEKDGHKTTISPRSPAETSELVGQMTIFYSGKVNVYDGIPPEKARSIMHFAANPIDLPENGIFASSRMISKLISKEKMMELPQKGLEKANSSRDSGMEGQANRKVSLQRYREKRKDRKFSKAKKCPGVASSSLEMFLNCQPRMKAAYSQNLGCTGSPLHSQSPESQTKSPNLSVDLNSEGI

[2] = target: T2, Y2H NINJA-AD (NINJA fused to GAL4 activation domain) (Arabidopsis thaliana); assay: yeast two-hybrid
T2 construct: Prey fusion; also called pDEST22-NINJA
T2 chain: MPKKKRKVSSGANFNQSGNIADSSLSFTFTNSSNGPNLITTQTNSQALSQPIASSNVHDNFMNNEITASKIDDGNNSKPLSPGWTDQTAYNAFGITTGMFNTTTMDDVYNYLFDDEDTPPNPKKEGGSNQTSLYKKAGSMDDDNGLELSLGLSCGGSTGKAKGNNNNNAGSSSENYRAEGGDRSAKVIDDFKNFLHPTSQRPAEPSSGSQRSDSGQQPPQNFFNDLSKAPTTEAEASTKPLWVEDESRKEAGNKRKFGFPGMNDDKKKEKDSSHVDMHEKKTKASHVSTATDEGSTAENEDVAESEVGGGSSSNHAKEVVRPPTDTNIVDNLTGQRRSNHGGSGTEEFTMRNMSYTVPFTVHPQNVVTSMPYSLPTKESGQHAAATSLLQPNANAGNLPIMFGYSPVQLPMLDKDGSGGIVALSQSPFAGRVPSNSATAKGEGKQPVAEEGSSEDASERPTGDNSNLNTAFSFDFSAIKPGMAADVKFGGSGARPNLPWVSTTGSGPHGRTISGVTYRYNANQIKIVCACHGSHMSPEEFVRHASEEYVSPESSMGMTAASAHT

[3] = target: T3, Y2H BZR1-AD (BZR1 fused to GAL4 activation domain) (Arabidopsis thaliana); assay: yeast two-hybrid (ProQuest, MaV203)
T3 construct: Prey fusion; also called pDEST22-BZR1
T3 chain: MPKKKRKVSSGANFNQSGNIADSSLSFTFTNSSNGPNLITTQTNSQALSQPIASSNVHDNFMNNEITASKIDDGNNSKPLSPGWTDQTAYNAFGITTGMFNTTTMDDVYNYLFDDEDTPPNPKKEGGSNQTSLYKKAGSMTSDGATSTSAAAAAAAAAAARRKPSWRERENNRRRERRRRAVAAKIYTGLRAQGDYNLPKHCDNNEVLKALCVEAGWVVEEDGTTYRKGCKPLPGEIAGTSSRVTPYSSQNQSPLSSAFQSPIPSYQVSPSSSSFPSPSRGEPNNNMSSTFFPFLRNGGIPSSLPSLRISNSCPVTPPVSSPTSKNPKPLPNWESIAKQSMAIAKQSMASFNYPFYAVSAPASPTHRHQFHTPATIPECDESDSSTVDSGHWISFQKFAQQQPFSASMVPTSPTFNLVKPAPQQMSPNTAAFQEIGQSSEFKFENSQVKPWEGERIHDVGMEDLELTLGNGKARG

[4] = target: T4, Y2H RGA1-AD (DELLA protein RGA1 fused to GAL4 activation domain); assay: yeast two-hybrid, PPD1-DBD as bait, selective medium with 15 mM 3AT
T4 construct: Prey fusion tested against PPD1-DBD as bait; also called DELLA (RGA1)
T4 chain: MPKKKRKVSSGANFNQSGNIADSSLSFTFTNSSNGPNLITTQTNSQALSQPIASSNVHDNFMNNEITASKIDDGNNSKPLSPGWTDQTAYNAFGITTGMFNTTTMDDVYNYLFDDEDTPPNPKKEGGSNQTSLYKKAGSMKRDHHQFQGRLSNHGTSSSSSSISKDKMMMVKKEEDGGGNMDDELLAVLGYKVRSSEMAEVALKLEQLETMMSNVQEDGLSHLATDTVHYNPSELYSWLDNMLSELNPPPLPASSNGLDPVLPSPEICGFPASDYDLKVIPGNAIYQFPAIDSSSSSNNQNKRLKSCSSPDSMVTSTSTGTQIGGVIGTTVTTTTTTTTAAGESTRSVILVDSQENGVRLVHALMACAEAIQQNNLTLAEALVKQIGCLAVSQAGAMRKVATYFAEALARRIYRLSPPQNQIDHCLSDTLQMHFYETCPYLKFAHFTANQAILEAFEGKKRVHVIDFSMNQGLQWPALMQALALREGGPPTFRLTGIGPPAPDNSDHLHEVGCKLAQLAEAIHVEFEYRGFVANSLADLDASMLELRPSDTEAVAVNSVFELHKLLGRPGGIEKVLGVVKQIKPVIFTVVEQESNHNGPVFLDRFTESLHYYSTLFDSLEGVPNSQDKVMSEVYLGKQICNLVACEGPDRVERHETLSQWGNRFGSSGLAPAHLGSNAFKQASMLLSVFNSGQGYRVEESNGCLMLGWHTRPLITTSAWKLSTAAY

[5] = target: T3, Y2H BZR1-AD (BZR1 fused to GAL4 …); assay: yeast two-hybrid

B1: Y2H PPD1-DBD (PPD1 fused to GAL4 DNA binding domain) (other)
chain: MKLLSSIEEACNICRLKKLKCSKEKPKCAKCLKNNWECRYSPKTKRSPLTRAHLTEVESRLERLEQLFLLIFPRENLNMILKMDSLQDIKALLTGLFVQDNVNKDAVTDRLASVETDMPLTLRQHRISATSSSEESSNKGQRQLTVSSRSNQTSLYKKAGSMDVGVSPAKSILAKPLKLLTEEDISQLTREDCRKFLKDKGMRRPSWNKSQAIQQVLSLKALYEPGDDSGAGIFRKILVSQPVNPPRVTTTLIEPSNELEACGRVSYPEDNGACHRMDSPRSAEFSGGSGHFVSEKDGHKTTISPRSPAETSELVGQMTIFYSGKVNVYDGIPPEKARSIMHFAANPIDLPENGIFASSRMISKLISKEKMMELPQKGLEKANSSRDSGMEGQANRKVSLQRYREKRKDRKFSKAKKCPGVASSSLEMFLNCQPRMKAAYSQNLGCTGSPLHSQSPESQTKSPNLSVDLNSEGI
notes: Bait fusion expressed in yeast MaV203; also called pDEST32-PPD1; PPD1 bait
B1: binds [1]; binds [2]; no binding [3]. B1: binds [4].

B2: Y2H TPL-DBD (TOPLESS fused to GAL4 DNA binding domain) (other)
chain: MKLLSSIEEACNICRLKKLKCSKEKPKCAKCLKNNWECRYSPKTKRSPLTRAHLTEVESRLERLEQLFLLIFPRENLNMILKMDSLQDIKALLTGLFVQDNVNKDAVTDRLASVETDMPLTLRQHRISATSSSEESSNKGQRQLTVSSRSNQTSLYKKAGSMSSLSRELVFLILQFLDEEKFKETVHKLEQESGFFFNMKYFEDEVHNGNWDEVEKYLSGFTKVDDNRYSMKIFFEIRKQKYLEALDKHDRPKAVDILVKDLKVFSTFNEELFKEITQLLTLENFRENEQLSKYGDTKSARAIMLVELKKLIEANPLFRDKLQFPTLRNSRLRTLINQSLNWQHQLCKNPRPNPDIKTLFVDHSCGPPNGARAPSPVNNPLLGGIPKAGGFPPLGAHGPFQPTASPVPTPLAGWMSSPSSVPHPAVSAGAIALGGPSIPAALKHPRTPPTNASLDYPSADSEHVSKRTRPMGISDEVNLGVNMLPMSFSGQAHGHSPAFKAPDDLPKTVARTLSQGSSPMSMDFHPIKQTLLLVGTNVGDIGLWEVGSRERLVQKTFKVWDLSKCSMPLQAALVKEPVVSVNRVIWSPDGSLFGVAYSRHIVQLYSYHGGEDMRQHLEIDAHVGGVNDISFSTPNKQLCVITCGDDKTIKVWDAATGVKRHTFEGHEAPVYSVCPHYKENIQFIFSTALDGKIKAWLYDNMGSRVDYDAPGRWCTTMAYSADGTRLFSCGTSKDGESFIVEWNESEGAVKRTYQGFHKRSLGVVQFDTTKNRYLAAGDDFSIKFWDMDAVQLLTAIDGDGGLQASPRIRFNKEGSLLAVSGNENVIKIMANSDGLRLLHTFENISSESSKPAINSIAAAAAAAATSAGHADRSANVVSIQGMNGDSRNMVDVKPVITEESNDKSKIWKLTEVSEPSQCRSLRLPENLRVAKISRLIFTNSGNAILALASNAIHLLWKWQRNERNATGKATASLPPQQWQPASGILMTNDVAETNPEEAVPCFALSKNDSYVMSASGGKISLFNMMTFKTMATFMPPPPAATFLAFHPQDNNIIAIGMDDSTIQIYNVRVDEVKSKLKGHSKRITGLAFSNVLNVLVSSGADAQLCVWNTDGWEKQRSKVLPLPQGRPNSAPSDTRVQFHQDQAHFLVVHETQLAIYETTKLECMKQWAVRESLAPITHATFSCDSQLVYASFMDATVCVFSSANLRLRCRVNPSAYLPASLSNSNVHPLVIAAHPQEPNMFAVGLSDGGVHIFEPLESEGKWGVAPPAENGSASGAPTAPSVGASASDQPQR
notes: Bait fusion; also called pDEST32-TPL
B2: binds [2]; binds [5].
